Results on four molecules are retold here after US20160369009A1 (published 2016).

Assay [1] addresses T1, human kallikrein-2 (hK2) (human, UniProt P20151 25-261).
T1 construct: The mature protein is said to be underlined, but the underlining is not recoverable from the text; In the assay hK2 was amine-coupled to a CM4 chip; also called human glandular kallikrein 2; antigen hK2
Description: SPR, Biacore 3000, hK2 on CM4 chip, mean KD from kon and koff. The procedure: (§1) All binding experiments were performed on CM4 chip on a Biacore 3000 instrument. The chip and all the reagents needed for activation, immobilization, deactivation, binding and regeneration were purchased from GE Healthcare and used according to the guidelines from the manufacturer.
In general terms: In SPR one partner is held on a chip, and binding of the other changes the refractive index at the surface.

Assay [2] addresses T1, human kallikrein-2 (hK2). Description: SPR, Biacore 3000, hK2 on CM4 chip, mean of channels fc2 and fc3. On the procedure:
as §1
(§2) The dissociation phase data was fitted and the dissociation rate constants (koff) were estimated (see Table 2).

Assay [3] addresses T1, human kallikrein-2 (hK2). Kind of assay: SPR, Biacore 3000, hK2 on CM4 chip, antibody 6.25-100 nM, mean of 18/18 fitted experiments. On the procedure:
as §1
(§3) In order to estimate the association rate constants, the dissociation rate constants (Table 2) were used in the fitted equations.
(§4) All fitted data was used in order to calculate an average value of the association rate constant and the standard deviation for each antibody (see Table 3).

Assay [4] addresses T1, human kallikrein-2 (hK2). Description: SPR, Biacore 3000, hK2 amine-coupled on CM4 chip, channel fc2, 50 nM antibody, 480 min dissociation. On the procedure: as §1, §2
Assay [5] addresses T1, human kallikrein-2 (hK2). Description: SPR, Biacore 3000, hK2 amine-coupled on CM4 chip, channel fc3, 50 nM antibody, 480 min dissociation. On the procedure: as §1, §2
In assay [6] the target is T1, human kallikrein-2 (hK2). Kind of assay: SPR, Biacore 3000, hK2 on CM4 chip, antibody 6.25-100 nM, mean of 15/18 fitted experiments. The procedure:
as §1, §3, §4

Assay [7] addresses T1, human kallikrein-2 (hK2). Kind of assay: SPR, Biacore 3000, hK2 on CM4 chip, antibody 6.25-100 nM, mean of 17/18 fitted experiments. The procedure:
as §1, §3, §4

T1 sequence (P20151 25-261 limits assumed): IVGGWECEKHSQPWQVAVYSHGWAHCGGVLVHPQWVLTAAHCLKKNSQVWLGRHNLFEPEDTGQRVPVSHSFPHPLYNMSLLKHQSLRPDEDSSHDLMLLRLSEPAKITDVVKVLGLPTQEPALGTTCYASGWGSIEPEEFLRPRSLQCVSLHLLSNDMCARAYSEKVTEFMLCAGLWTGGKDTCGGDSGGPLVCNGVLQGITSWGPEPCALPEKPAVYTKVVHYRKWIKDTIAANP

B1: h11B6-DFO (humanised 11B6 conjugated with deferoxamine) (antibody, human IgG1, kappa, V domains shown)
VH: QVQLQESGPGLVKPSDTLSLTCAVSGNSITSDYAWNWIRQPPGKGLEWIGYISYSGSTTYNPSLKSRVTMSRDTSKNQFSLKLSSVTAVDTAVYYCATGYYYGSGFWGQGTLVTVSS
VL: DIVLTQSPDSLAVSLGERATINCKASESVEYFGTSLMHWYQQKPGQPPKLLIYAASNRESGVPDRFSGSGSGTDFTLTISSLQAEDVAVYYCQQTRKVPYTFGQGTKLEIKR
modifications: DFO (deferoxamine) chelator coupled; residues and chain not stated
notes: This is the h11B6 IgG1/kappa carrying DFO; also called h1166-DFO; DFO-h11B6
A word on the Kd: it is the concentration at which binding is half-saturated. Higher therefore signals weaker binding. By koff is commonly meant the first-order rate constant of dissociation. The low end stands for a long-lived complex, the high end for a short-lived complex. In general, kon refers to the second-order rate constant of association. A higher kon goes with faster complex formation. For B1, the Kd with human kallikrein-2 (hK2) [1] turned out to be 0.54 nM. The koff is 5.7e-05 s⁻¹ in the assay with human kallikrein-2 (hK2) [2], 5.8e-05 s⁻¹ with human kallikrein-2 (hK2) [4] and 5.5e-05 s⁻¹ with human kallikrein-2 (hK2) [5]. Also, the kon in the assay with human kallikrein-2 (hK2) [3] turned out to be 111000 M⁻¹ s⁻¹.

B2: humanised 11B6 antibody (h11B6), IgG1/kappa (antibody, V domains shown)
VH: QVQLQESGPGLVKPSDTLSLTCAVSGNSITSDYAWNWIRQPPGKGLEWIGYISYSGSTTYNPSLKSRVTMSRDTSKNQFSLKLSSVTAVDTAVYYCATGYYYGSGFWGQGTLVTVSS
VL: DIVLTQSPDSLAVSLGERATINCKASESVEYFGTSLMHWYQQKPGQPPKLLIYAASNRESGVPDRFSGSGSGTDFTLTISSLQAEDVAVYYCQQTRKVPYTFGQGTKLEIKR
notes: Expressed transiently in HEK293 cells; also called h1186
B2: in the assay with human kallikrein-2 (hK2) [1], the Kd worked out at 0.65 nM. For the same molecule, the koff worked out at 6.7e-05 s⁻¹ with human kallikrein-2 (hK2) [2], 6.4e-05 s⁻¹ in the assay with human kallikrein-2 (hK2) [4] and 6.9e-05 s⁻¹ with human kallikrein-2 (hK2) [5]. Further, the kon with human kallikrein-2 (hK2) [6] turned out to be 117000 M⁻¹ s⁻¹.

B3: h11B6-DTPA (humanised 11B6 conjugated with DTPA chelator) (antibody, V domains shown)
VH: QVQLQESGPGLVKPSDTLSLTCAVSGNSITSDYAWNWIRQPPGKGLEWIGYISYSGSTTYNPSLKSRVTMSRDTSKNQFSLKLSSVTAVDTAVYYCATGYYYGSGFWGQGTLVTVSS
VL: DIVLTQSPDSLAVSLGERATINCKASESVEYFGTSLMHWYQQKPGQPPKLLIYAASNRESGVPDRFSGSGSGTDFTLTISSLQAEDVAVYYCQQTRKVPYTFGQGTKLEIKR
modifications: DTPA chelator coupled; residues and chain not stated
notes: This is the h11B6 IgG1/kappa carrying a chelator; also called h1166-DTPA; H1166-DTPA
B3 gave a Kd with human kallikrein-2 (hK2) [1] of 0.93 nM. Besides, the koff with human kallikrein-2 (hK2) [2] is 0.000127 s⁻¹; with human kallikrein-2 (hK2) [4] it was 6.3e-05 s⁻¹; with human kallikrein-2 (hK2) [5], 0.000191 s⁻¹. In the assay with human kallikrein-2 (hK2) [7], this molecule had a kon of 182000 M⁻¹ s⁻¹.

B4: murine 11B6 antibody (m11B6), parent murine anti-hK2 monoclonal antibody (antibody, mouse IgG1, kappa, V domains shown)
VH: DVQLQESGPGLVKPSQSLSLTCTVTGNSITSDYAWNWIRQFPGNRLEWMGYISYSGSTTYSPSLKSRFSITRDTSKNQFFLQLNSVTPEDTATYFCATGYYYGSGFWGQGTLVTVSS
VL: DIVLTQSPASLAVSLGQRATISCRASESVEYFGTSLMHWYRQKPGQPPKLLIYAASNVESGVPARFSGSGSGTDFSLNIQPVEEDDFSMYFCQQTRKVPYTFGGGTKLEIKR
notes: Whole murine IgG obtained from the University of Turku; also called mAb 11B6; ml 1B6
Take B4: in the assay with human kallikrein-2 (hK2) [1], the Kd worked out at 0.19 nM. Also, the koff in the assay with human kallikrein-2 (hK2) [2] is 3.4e-05 s⁻¹; with human kallikrein-2 (hK2) [4] it was 1.9e-05 s⁻¹; in the assay with human kallikrein-2 (hK2) [5] it was 4.9e-05 s⁻¹. Further, the kon in the assay with human kallikrein-2 (hK2) [3] is 248000 M⁻¹ s⁻¹.
